Data set [1] concerns the molecule itself. The experiment in a line: Western blot of periplasmic fraction, self-association.
Data set [2] deals with the molecule itself. The experiment in a line: self-association of familial mutation variants.
Data set [3] concerns the molecule itself. Nature of the data set: Western blot of periplasmic fraction (self-association). (In western blotting, separated proteins are transferred to a membrane and probed.)

B1: Aβ-IgNAR-G6 (VNAR)
VNAR: AWVDQTPRTATKETGESLTINCVLRDASFELKDTGWYRTKLGSTNEQSISIGGRYVETVNKGSKSFSLRISDLRVEDSGTYKCQAFYGGGLVFFAEDVGSNKGAIIGLMVGGVVIAGGGGEKGAGTALTVKA
notes: No crystals obtained; also called 37Q-6; glycine-6 version
Consider B1, for which the binding result in data set [1] is “binds”.

B2: Aβ-IgNAR-G3 (VNAR)
VNAR: AWVDQTPRTATKETGESLTINCVLRDASFELKDTGWYRTKLGSTNEQSISIGGRYVETVNKGSKSFSLRISDLRVEDSGTYKCQAFYGLVFFAEDVGSNKGAIIGLMVGGVVIAGGGEKGAGTALTVKA
notes: No crystals obtained; also called 37A-1; glycine-3 version
Regarding B2, in data set [1], the binding result is listed as “binds”.

B3: Aβ-IgNAR 37F-2 (Asp23Asn) (VNAR)
VNAR: AWVDQTPRTATKETGESLTINCVLRDASFELKDTGWYRTKLGSTNEQSISIGGRYVETVNKGSKSFSLRISDLRVEDSGTYKCQAFYVFFAENVGSNKGAIIGLMVGGVVIGGEKGAGTALTVKA
notes: also called familial mutant Asp23Asn
B3: in data set [2], the binding result is “binds”.

B4: Aβ-IgNAR 37K-1 (Glu22Gln) (VNAR)
VNAR: AWVDQTPRTATKETGESLTINCVLRDASFELKDTGWYRTKLGSTNEQSISIGGRYVETVNKGSKSFSLRISDLRVEDSGTYKCQAFYVFFAQDVGSNKGAIIGLMVGGVVIGGEKGAGTALTVKA
notes: also called familial mutant Glu22Gln
On to B4, for which the binding result in data set [2] was “binds”.

B5: Aβ-IgNAR 37L-2 (Ala21Gly) (VNAR)
VNAR: AWVDQTPRTATKETGESLTINCVLRDASFELKDTGWYRTKLGSTNEQSISIGGRYVETVNKGSKSFSLRISDLRVEDSGTYKCQAFYVFFGEDVGSNKGAIIGLMVGGVVIGGEKGAGTALTVKA
notes: also called familial mutant Ala21Gly
As for B5, the binding result in data set [2] is on record as “binds”.

B6: IgNAR single variable domain antibody 12Y-2 (VNAR)
VNAR: AWVDQTPRTATKETGESLTINCVLRDASFELKDTGWYRTKLGSTNEQSISIGGRYVETVNKGSKSFSLRISDLRVEDSGTYKCQAFYSLPLGDYNYSLLFRGEKGAGTALTVKA
notes: Scaffold without Aβ insert, used as the monomeric control; also called IgNAR wt; wild type IgNAR
B6: in data set [3], the binding result is given as “no binding”.

B7: Aβ-IgNAR 37R-1 (ΔGlu22) (VNAR)
VNAR: AWVDQTPRTATKETGESLTINCVLRDASFELKDTGWYRTKLGSTNEQSISIGGRYVETVNKGSKSFSLRISDLRVEDSGTYKCQAFYVFFADVGSNKGAIIGLMVGGVVIGGEKGAGTALTVKA
notes: also called familial mutant ΔGlu22
For the protein B7, the binding result in data set [2] is on record as “binds”.

These data come from US20110269938A1 (COMMONWEALTH SCIENTIFIC AND INDUSTRIAL RESEARCH ORGANISATION, published 2011).
